Source: patent US20240270806A1

Target: Human IL-12 receptor (human IL-12Rb1 and IL-12Rb2) (human) (UniProt P42701)
Sequence (Q99665 24-862, chain 2 of 2, other chains not shown): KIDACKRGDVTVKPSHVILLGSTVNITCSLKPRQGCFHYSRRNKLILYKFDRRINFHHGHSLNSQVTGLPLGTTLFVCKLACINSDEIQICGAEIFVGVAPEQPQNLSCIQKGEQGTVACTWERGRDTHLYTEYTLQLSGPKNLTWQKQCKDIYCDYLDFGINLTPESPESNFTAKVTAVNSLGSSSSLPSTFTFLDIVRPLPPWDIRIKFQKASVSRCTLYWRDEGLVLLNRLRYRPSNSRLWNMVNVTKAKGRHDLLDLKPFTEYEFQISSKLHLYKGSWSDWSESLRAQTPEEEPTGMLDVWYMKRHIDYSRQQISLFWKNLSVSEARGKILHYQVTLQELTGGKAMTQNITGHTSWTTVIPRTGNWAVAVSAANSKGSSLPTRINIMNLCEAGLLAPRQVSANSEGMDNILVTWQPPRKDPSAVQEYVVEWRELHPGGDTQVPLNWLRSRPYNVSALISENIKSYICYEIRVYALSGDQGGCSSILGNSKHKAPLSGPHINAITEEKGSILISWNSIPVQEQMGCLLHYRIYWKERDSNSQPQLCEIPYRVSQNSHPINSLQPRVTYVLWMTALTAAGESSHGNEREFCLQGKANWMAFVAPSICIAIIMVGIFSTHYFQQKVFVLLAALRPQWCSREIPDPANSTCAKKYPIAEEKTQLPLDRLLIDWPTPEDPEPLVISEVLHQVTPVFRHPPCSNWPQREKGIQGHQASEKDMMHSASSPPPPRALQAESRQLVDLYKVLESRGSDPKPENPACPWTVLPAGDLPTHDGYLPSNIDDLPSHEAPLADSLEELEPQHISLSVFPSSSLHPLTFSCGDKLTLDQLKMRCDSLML

rhIL-12, sequence (P29460 23-328 limits assumed): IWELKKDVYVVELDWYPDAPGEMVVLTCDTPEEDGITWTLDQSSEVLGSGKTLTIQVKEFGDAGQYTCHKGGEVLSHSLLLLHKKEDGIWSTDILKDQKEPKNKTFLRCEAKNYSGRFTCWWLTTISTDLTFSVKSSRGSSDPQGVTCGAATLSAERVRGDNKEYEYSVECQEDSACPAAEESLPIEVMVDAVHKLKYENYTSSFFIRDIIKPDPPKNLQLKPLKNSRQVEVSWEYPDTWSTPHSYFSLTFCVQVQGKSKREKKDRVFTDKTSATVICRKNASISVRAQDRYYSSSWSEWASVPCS
rhIL-12, sequence (P29459 23-219 limits assumed): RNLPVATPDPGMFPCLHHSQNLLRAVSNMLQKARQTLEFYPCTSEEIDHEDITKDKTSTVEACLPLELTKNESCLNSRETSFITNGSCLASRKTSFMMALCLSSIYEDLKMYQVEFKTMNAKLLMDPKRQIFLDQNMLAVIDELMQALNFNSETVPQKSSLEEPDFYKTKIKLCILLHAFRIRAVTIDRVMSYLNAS

EC50 (read off the curve), IL-12 luciferase reporter assay (+ Protease): 0.2 nM
EC50 (read off the curve), IL-12 luciferase reporter assay (without protease): 0.2 nM
Substance: rhIL-12 (from UniProt P29460 23-328; P29459 23-219) (ligand)
